Where two headings read alike, the source gives them in different places.
Assays:
[1] = BTK FAC plasma stability assay, mouse plasma; assay type: in vitro ADME
Summary of the method: (§1)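 Compound from a 500 µM acetonitrile:water working solution was spiked into K3-EDTA plasma or Dulbecco's PBS and incubated with shaking at 38 °C. Samples taken at 0, 2, 6 and 24 h were precipitated with cold acetonitrile containing glyburide internal standard. Semi-quantitative LC-MS/MS used analyte:internal standard peak area ratios.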

[2] = BTK FAC plasma stability assay, rat plasma; assay type: in vitro ADME
Summary of the method: as §1

[3] = BTK FAC plasma stability assay, PBS buffer arm; assay type: physicochemical
Summary of the method: as §1

[4] = BTK FAC plasma stability assay, dog plasma; assay type: in vitro ADME
[5] = In vivo pharmacokinetic study in Cynomolgus monkeys (i.v. or s.c.), FAC and payload in blood; design: species or system cynomolgus monkey; conditions: analyte FAC, FAC i.v. dose 1 umol/kg
Protocol: (§2) Pharmacokinetic studies were conducted in male C57/B16 mice; male Sprague-Dawley rats; male Beagle dogs and male Cynomolgus monkeys. 3 animals per group were used for each study performed. All studies were performed in accordance with local animal welfare regulations.
(§3) Between 1 and 10 µM/kg FAC was administered either intravenously or subcutaneously as a solution in 10 mM PBS with NaOH (dose volume 0.4 mL/kg in dog and monkey s.c. and 0.2 mL/kg i.v. in monkey). Serial 100 µL blood samples were collected via venipuncture of the cephalic vein at defined timepoints to 336 hours (into EDTA coated tubes).
(§4) Each blood sample was precipitated with acetonitrile containing internal standard; samples were mixed and centrifuged (20 minutes 4000 RPM at 4° C.). Supernatant was transferred to a microwell plate and evaporated under nitrogen at 60° C. Residue was resuspended in acetonitrile/water (7:3 v/v); plate sealed and transferred to an ultrasonic bath for 3 minutes, prior to analysis. Quantification was performed by LC-MS/MS (SciexAP16500 Q-trap, Shimadzu Nexera X2) using a Phenomenex Polar RP analytical column (2.5 μm particle size; 50×2 mm). The mobile phase consisted of solvent A (0.1% formic acid in water) and solvent B (0.1% formic acid in acetonitrile). The fatty acid conjugate and API were detected using multiple reaction monitoring.
(§5) Data analysis and calculation of non-compartmental pharmacokinetic parameters was
(§6) performed using an in-house analysis. Following intravenous administration whole blood clearance was calculated by the dose administered divided by AUC0-inf. Volume of distribution at steady state was calculated as MRT*CL, where MRT is the mean residence time, calculated by AUMC0-inf/AUC0-inf. The half-life (t1/2) of the terminal elimination phase was calculated by 0.693/λ. For both intravenous and subcutaneous administration, the systemic exposures were determined by calculating the area under the blood concentration time curve (AUC) from time zero to the last observed quantifiable concentration (AUClast) by using the linear trapezoidal method and normalised to dose. Extrapolated AUC (AUC0-inf) is calculated by addition of AUClast and AUCtlast-inf; where AUCtlast-inf is calculated based on Clast/λ. The slope of the terminal elimination phase was estimated by linear regression of the terminal data points (minimum 3 points) from a natural log concentration versus time plot of the data. Bioavailability was calculated as the dose normalized ratio of […] AUCinf to intravenous AUCinf (100*[SC AUCinf/SC dose]/[IV AUCinf/IV dose]). Following subcutaneous administration Cmax is calculated as the average maximum observed peak concentration and Tmax is the time associated with the determined Cmax.

[6] = In vivo pharmacokinetic study in Beagle dogs (i.v. or s.c.), FAC and payload in blood; design: species or system dog; conditions: analyte payload after FAC i.v. dose 1 umol/kg
Protocol: as §2, §3, §4, §5, §6

[7] = target: T1, BTK C481S (Homo sapiens, UniProt Q06187, C481S); experiment: PD screen in TMD8 BTK C481S mutant tumor-bearing mice, BTK levels and compound concentrations in blood and tumor; assay type: in vivo, mouse; conditions: 25 umol/kg
T1 construct: endogenous in cells; host or cells: TMD8 BTK C481S mutant tumour xenografts in mice
T1 sequence (Q06187 whole entry C481S): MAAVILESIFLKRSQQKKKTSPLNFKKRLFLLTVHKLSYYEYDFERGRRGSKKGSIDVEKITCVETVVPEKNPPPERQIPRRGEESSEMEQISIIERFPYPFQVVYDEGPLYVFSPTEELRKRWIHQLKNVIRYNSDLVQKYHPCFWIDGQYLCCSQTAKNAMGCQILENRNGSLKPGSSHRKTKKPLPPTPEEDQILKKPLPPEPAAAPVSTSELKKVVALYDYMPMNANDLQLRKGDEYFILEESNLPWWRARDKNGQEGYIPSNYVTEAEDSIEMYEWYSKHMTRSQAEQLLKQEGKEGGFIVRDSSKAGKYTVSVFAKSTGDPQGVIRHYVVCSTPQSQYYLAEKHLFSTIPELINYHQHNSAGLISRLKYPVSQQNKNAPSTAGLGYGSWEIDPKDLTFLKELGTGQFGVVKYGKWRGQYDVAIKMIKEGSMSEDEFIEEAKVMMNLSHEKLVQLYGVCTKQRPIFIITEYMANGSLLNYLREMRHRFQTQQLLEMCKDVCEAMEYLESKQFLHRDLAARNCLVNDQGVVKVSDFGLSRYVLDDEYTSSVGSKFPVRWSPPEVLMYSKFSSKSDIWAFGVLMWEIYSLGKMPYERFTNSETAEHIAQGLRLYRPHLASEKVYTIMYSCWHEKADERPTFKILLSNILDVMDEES
Summary of the method: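 Single compound injection in mice bearing TMD8 BTK C481S tumors, groups of 2, with blood and tumor sampled at day 0, 4, 7 and sometimes 10. Compound levels measured by UPLC/MS-MS and BTK levels by Meso Scale Discovery.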

[8] = In vivo pharmacokinetic study in rats (i.v. or s.c.), FAC and payload in blood; design: species or system rat
Protocol: as §2
(§7) […] Serial 30 µL blood samples were collected via venipuncture of the tail vein in mouse, and via the cannulated jugular vein in rats at defined timepoints to 216 hours (into EDTA coated tubes).
as §4, §5, §6
(§8) For PK experiments, non-tumor bearing mice or rats were treated once (10 mL/kg) with a compound either i.v. or s.c. Serial blood samplings from the tail vein (5-20 μl) were collected during the course of the experiment. For PK/PD experiments in tumor-bearing mice, compound was administered once (10 mL/kg) either i.v. or s.c. Animals were randomized into groups of n=3 and tissue samples were collected at several time points. At the times indicated, animals were anaesthetized by exposure to 2-3% v/v isoflurane in medical oxygen. They were sacrificed without recovering from anesthetic after blood sampling into commercially prepared EDTA coated tubes (Milian, cat #TOM-14C) in order to extract plasma. The tissues were excised, weighted and rapidly frozen in liquid nitrogen. Later, tumors were cryogenic dry pulverized with the CryoPrep™ system (model CP-02, Covaris). For efficacy experiments in ectopic tumor-bearing mice, animals were randomized into groups of n=6 for a mean tumor size of 100 mm^3 and compound was administered either i.v. q3w or s.c. q2w. When implanted in brain, animals were randomized into groups of n=4 for a mean bioluminescence of 1.0-2.0E+06 [p/s]/[ρW/cm^2] and compound was administered i.v. qw. Tumor response were reported with the measures of tumor volumes or bioluminescence from the treatment start. […]

[9] = test system: TMD8 tumors; experiment: Efficacy in ectopic (subcutaneous) TMD8 tumor-bearing SCID/BEIGE mice, tumor volume; assay type: in vivo, mouse; conditions: I.v.
Protocol: (§9) All animal experiments were performed according to procedures covered by permit number BS-1974, BS-1975 and BS-2904 issued by the Kantonales Veterinäramt Basel-Stadt and strictly adhered to the Eidgenössisches Tierschutzgesetz and the Eidgenössische Tierschutzverordnung. Female Sprague Dawley rat were obtained from Charles Rivers (Germany), female Balb/c mice from Charles Rivers (Italy) and female SCID/BEIGE (C.B-Igh-1b/GbmsTac-Prkdcscid-Lystbg N7) mice from Taconic. All the animals were housed in a pathogen-controlled environment with access to food and water ad libitum and they were identified with transponders.
(§10) Subcutaneous TMD8 tumors were induced by injecting tumor cells expanded in vitro in the right flank of SCID/BEIGE mice. As soon as the injection was finished, antagonization (naloxone, flumazenil and atipamezole injected s.c.) was injected and mice are put on a warming pad for recovery and carefully checked during that time.
(§11) For PK experiments, non-tumor bearing mice or rats were treated once (10 mL/kg) with a compound either i.v. or s.c. Serial blood samplings from the tail vein (5-20 μl) were collected during the course of the experiment. For PK/PD experiments in tumor-bearing mice, compound was administered once (10 mL/kg) either i.v. or s.c. Animals were randomized into groups of n=3 and tissue samples were collected at several time points. At the times indicated, animals were anaesthetized by exposure to 2-3% v/v isoflurane in medical oxygen. They were sacrificed without recovering from anesthetic after blood sampling into commercially prepared EDTA coated tubes (Milian, cat #TOM-14C) in order to extract plasma. The tissues were excised, weighted and rapidly frozen in liquid nitrogen. Later, tumors were cryogenic dry pulverized with the CryoPrep™ system (model CP-02, Covaris). For efficacy experiments in ectopic tumor-bearing mice, animals were randomized into groups of n=6 for a mean tumor size of 100 mm^3 and compound was administered either i.v. q3w or s.c. q2w. When implanted in brain, animals were randomized into groups of n=4 for a mean bioluminescence of 1.0-2.0E+06 [p/s]/[ρW/cm^2] and compound was administered i.v. qw. Tumor response were reported with the measures of tumor volumes or bioluminescence from the treatment start. Concentrations of compound in blood and tissues were determined simultaneously by UPLC/MS-MS. BTK and IL-10 levels in tumor were determined by Meso Scale Discovery (MSD).

[10] = In vivo pharmacokinetic study in mice (i.v. or s.c.), FAC and payload in blood; design: species or system mouse; conditions: male
Protocol: as §2, §7, §4, §5, §6, §8

[11] = target: T2, BTK (Homo sapiens, UniProt Q06187); experiment: PK/PD in TMD8 tumor-bearing mice: BTK levels in tumor by Meso Scale Discovery; assay type: in vivo, mouse; conditions: for Duration of BTK degradation in mouse ≥90%: I.v.
T2 construct: endogenous in cells; host or cells: TMD8 tumour xenografts in SCID/BEIGE mice
T2 sequence (Q06187 whole entry): as the sequence (Q06187 whole entry C481S) above, with S481C counted along it
Protocol: as §9, §10, §11

[12] = C57/B16, mouse, in vivo, sc, 40 umol/kg

SMILES: CCCCCCCCCCCN(C(=O)CCCCCCCCCC(=O)O)[C@@H](CCC(=O)NCCOCCOCCOCCOCCOCCOCCOCCOCCOCCOCCOCCOCCC(=O)NCC(=O)OC(C)(C)c1ccc(C(=O)Nc2cc(F)cc(-c3ncnc4[nH]c(-c5ccc(CCN6CCC7(CC6)CCN(C(=O)c6ccc(OC)c(N8CCC(=O)NC8=O)c6)CC7)cc5)cc34)c2C)c(F)c1)C(=O)O [Example A2, (S)-50-Carboxy-2-(4-((3-(6-(4-(2-(9-(3-(2,4-dioxotetrahydropyrimidin-1(2H)-yl)-4-methoxybenzoyl)-3,9-diazaspiro[5.5]undecan-3-yl)ethyl)phenyl)-7H-pyrrolo[2,3-d]pyrimidin-4-yl)-5-fluoro-2-methylphenyl)carbamoyl)-3-fluorophenyl)-2-methyl-4,7,47,52-tetraoxo-51-undecyl-3,10,13,16,19,22,25,28,31,34,37,40,43-tridecaoxa-6,46,51-triazadohexacontan-62-oic acid]
- % Release of degrader after 24 h mouse ([1]; 24 h): 3.4%
- Plasma stability (h) mouse ([1]; incubation to 24 h): 12.3 h
- % Release of degrader after 24 h rat ([2]; 24 h): 8.9%
- Plasma stability (h) rat ([2]; incubation to 24 h): 18.1 h
- % Release of degrader after 24 h PBS ([3]; 24 h): 0.8%
- Plasma stability (h) PBS ([3]; incubation to 24 h): >48 h
- Plasma stability (h) dog [4]: >48 h
- % Release of degrader after 24 h dog ([4]; 24 h): 7.3%
- C0 ([5]; read-out: FAC C0-uM cyno): 56.6 µM
- AUC ([5]; male, cynomolgus monkey, whole blood, iv, read-out: FAC AUC-uM.h cyno): 590 µM·h
- Payload C0-uM dog [6]: 0.2 µM

SMILES: COc1ccc(C(=O)N2CCC3(CCN(CCc4ccc(-c5cc6c(-c7cc(F)cc(NC(=O)c8ccc(C(C)(C)OC(=O)CNC(=O)CCOCCOCCOCCOCCOCCOCCOCCOCCOCCOCCOCCOCCNC(=O)C(CCCCCCCCCCCCCCP(=O)(O)O)(CCCCCCCCCCCCCCP(=O)(O)O)C(=O)O)cc8F)c7C)ncnc6[nH]5)cc4)CC3)CC2)cc1N1CCC(=O)NC1=O [Example A28, 2-(4-((3-(6-(4-(2-(9-(3-(2,4-dioxotetrahydropyrimidin-1(2H)-yl)-4-methoxybenzoyl)-3,9-diazaspiro[5.5]undecan-3-yl)ethyl)phenyl)-7H-pyrrolo[2,3-d]pyrimidin-4-yl)-5-fluoro-2-methylphenyl)carbamoyl)-3-fluorophenyl)-2-methyl-4,7,47-trioxo-48,48-bis(14-phosphonotetradecyl)-3,10,13,16,19,22,25,28,31,34,37,40,43-tridecaoxa-6,46-diazanonatetracontan-49-oic acid]
- Duration of BTK degradation in mouse ≥90% ([7]; i.v.): 10 days
- Duration of BTK degradation in mouse ≥90% ([7]; s.c.): 10 days
- C0 ([8]; analyte FAC, FAC i.v. dose 10 umol/kg, read-out: FAC C0-uM rat): 57 µM
- Payload C0-uM Rat ([8]; analyte payload after FAC i.v. dose 10 umol/kg): 0.21 µM
- AUC ([8]; male, Sprague-Dawley, rat, in vivo, iv, analyte FAC, FAC i.v. dose 10 umol/kg, read-out: FAC AUC-uM.h rat): 704 µM·h

SMILES: Cc1c(NC(=O)c2ccc(C(C)(C)O)cc2F)cc(F)cc1-c1ncnc2[nH]c(-c3ccc(CN4CCC(OC5CCN(CCn6cccc(CN7CCC(=O)NC7=O)c6=O)CC5)CC4)cc3)cc12 [Compound N, N-(3-(6-(4-((4-((1-(2-(3-((2,4-Dioxotetrahydropyrimidin-1(2H)-yl)methyl)-2-oxopyridin-1(2H)-yl)ethyl)piperidin-4-yl)oxy)piperidin-1-yl)methyl)phenyl)-7H-pyrrolo[2,3-d]pyrimidin-4-yl)-5-fluoro-2-methylphenyl)-2-fluoro-4-(2-hydroxypropan-2-yl)benzamide]
- Dosing to achieve sustained ~90% regression [9]: 20 mg/kg 2qw
- AUC ([10]; C57/B16, whole blood, iv, Mouse, unconj. BTK Degrader dosed itself (i.v. per row label), API dose 10 umol/kg, read-out: Payload (BTK Degrader) AUC): 9.3 µM·h
- Cmax ([10]; C57/B16, whole blood, iv, Mouse, unconj. BTK Degrader dosed itself (i.v. per row label), API dose 10 umol/kg, read-out: Payload (BTK Degrader) Cmax): 1.6 µM
- Duration of BTK degradation in mouse ≥90% ([11]; 20 mg/kg (unconjugated N)): 4 days
- Duration of BTK degradation in mouse ≥90% (days) ([11]; s.c., 10 mg/kg (unconjugated N)): 1(10 mg/kg) days

SMILES: CCCCCCCCCCC[C@@](CCCCCCCCCCC(=O)O)(C(=O)O)C(=O)NCCOCCOCCOCCOCCOCCOCCOCCOCCOCCOCCOCCOCCC(=O)NCC(=O)OC(C)(C)c1ccc(C(=O)Nc2cc(F)cc(-c3ncnc4[nH]c(-c5ccc(CN6CCC(OC7CCN(CCn8cccc(CN9CCC(=O)NC9=O)c8=O)CC7)CC6)cc5)cc34)c2C)c(F)c1 (single isomer, unassigned) [Compound B2]
- Dosing to achieve sustained ~90% regression [9]: 60 umol/kg q3w
- AUC [10, 12]: 1860 µM·h
- Cmax [10, 12]: 60 µM
- Duration of BTK degradation in mouse ≥90% ([11]; 40 umol/kg): 10 days
